According to patent publication US20050074822A1:

Target: MHC class I (human)
Test: cell-based or functional assay

“monoclonal antibody to MHC class I (w6/32 without sodium azide, Cat. No. 16-9983, e-Bioscience, Inc.)” was tested, and the IFN-γ production (ELISPOT, PBMC stimulated with CMV pp65 peptide …), percent inhibited, 2 µl W6/32 was 27 to 42% and the IFN-γ production (ELISPOT, PBMC stimulated with CMV pp65 peptide …), percent inhibited, 10 µl W6/32 was 58 to 71%.
